Data as given in US20040248787A1.

Biological target: normal MITF (M type), expressed from plasmid pSU063 (MITF-M/pCDNA3) in COS7 cells (UniProt Q08874)
Test: cell-based or functional assay

Sequence of UniProt Q08874 (Q08874 other isoform, or with tags, fused parts or gaps limits assumed): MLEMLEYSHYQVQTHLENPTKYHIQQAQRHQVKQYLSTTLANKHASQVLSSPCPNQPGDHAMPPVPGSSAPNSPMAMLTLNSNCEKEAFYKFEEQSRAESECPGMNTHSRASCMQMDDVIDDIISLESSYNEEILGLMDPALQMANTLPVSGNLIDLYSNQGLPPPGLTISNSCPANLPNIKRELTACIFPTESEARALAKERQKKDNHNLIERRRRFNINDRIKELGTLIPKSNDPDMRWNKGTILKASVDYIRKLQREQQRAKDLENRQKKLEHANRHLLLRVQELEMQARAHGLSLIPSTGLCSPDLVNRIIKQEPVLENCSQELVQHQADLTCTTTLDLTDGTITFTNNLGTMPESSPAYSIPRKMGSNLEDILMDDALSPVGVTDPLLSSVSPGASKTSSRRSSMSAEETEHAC

| Substance | Luciferase activity (c-kit promoter R-luc reporter in COS7 cells, PBS addition taken as 1) (relative to PBS = 1) |
| --- | --- |
| His Tag-PTD-wh variant of MITF (from UniProt Q08874 119-526) | 0.72 |
| His Tag-PTD-mi variant of MITF (from UniProt Q08874 119-526) | 0.92 |
